Assay results from article PMC9254107, “The Toxoplasma glucan phosphatase TgLaforin utilizes a distinct functional mechanism that can be exploited by therapeutic inhibitors” (The Journal of Biological Chemistry, 2022).

Target: the molecule itself
Assay: SEC-MALS; Superdex 200 10/300; 500 ul of 2 mg/ml protein loaded, 0.5 ml/min; purification buffer of full-length TgLaforin (50 mM Hepes, 100 mM NaCl, 15 mM imidazole, 2 mM DTT, pH 8.0)

B1: TgLaforin (Toxoplasma gondii laforin, glucan phosphatase), full length (enzyme, UniProt S8F2K7 1-523, looked up)
chain: MRVRFSVTAFVPPNAQLGVVGSAPFLGEWKLEHCVPLMPYSAPHPQGLEPSLWFRDIDLDPASCPNDTNDVHSTAAVSASCSADRRRCDLSRQSPHCFPSARSASPYMVEVSRGDCPFAVELMSTSQHVLSEFSKHNSPVYSAGEQRFRRSLPSSASFSSCTSSGSAVAATKCVWDAAAYRVATRAPEVQAVLESHPLRHCAFEYKFVLWYPPNGEIAVPYVPTTAGEEVPITYAGDSEVLNEESEGGARRRSWRKWLFPPSPSRCPAPPGPSESIVWEGFGPDSNRKFCFDPFDVVVDVNELGDLECLYICRIAHFRDPRAGGVGEYDLTTRFYNSVKSECRMHYSTIFPRFFVGSCPRQLKHIRHLKEELKVTCVVNLQTEQDLCNNYPDPIASSRSAEAVSQLYDGSGLRYVWLPTADMCDSARKIAVANAAFLLLGLFQSGHSVYMHCNAGVGRSVAAACAFLCFAVGLDLRKVNFLICARRPVAYWDEKAMKYGIGDYQAKFGHCRVVGEEAEERQHA
notes: TgLaforin, Toxoplasma gondii glucan phosphatase, ToxoDB TGME49_205290, 523 amino acids; N-terminal split CBM20 followed by a DSP domain; predicted recombinant monomer 61.5 kDa; also called T. gondii laforin; full-length TgLaforin; source: Sf9 insect cells (baculovirus), purified (Ni-agarose, SEC) to >95% homogeneity
stoichiometry N: 2
